Source: US20160194357A1, “Novel NPR-B Agonists” (published 2016)
Bridges are numbered along the chain shown (N, C = ends). Where no end group is shown, it is not given here.

T1: natriuretic peptide receptor -A (Homo sapiens)
T1 chain: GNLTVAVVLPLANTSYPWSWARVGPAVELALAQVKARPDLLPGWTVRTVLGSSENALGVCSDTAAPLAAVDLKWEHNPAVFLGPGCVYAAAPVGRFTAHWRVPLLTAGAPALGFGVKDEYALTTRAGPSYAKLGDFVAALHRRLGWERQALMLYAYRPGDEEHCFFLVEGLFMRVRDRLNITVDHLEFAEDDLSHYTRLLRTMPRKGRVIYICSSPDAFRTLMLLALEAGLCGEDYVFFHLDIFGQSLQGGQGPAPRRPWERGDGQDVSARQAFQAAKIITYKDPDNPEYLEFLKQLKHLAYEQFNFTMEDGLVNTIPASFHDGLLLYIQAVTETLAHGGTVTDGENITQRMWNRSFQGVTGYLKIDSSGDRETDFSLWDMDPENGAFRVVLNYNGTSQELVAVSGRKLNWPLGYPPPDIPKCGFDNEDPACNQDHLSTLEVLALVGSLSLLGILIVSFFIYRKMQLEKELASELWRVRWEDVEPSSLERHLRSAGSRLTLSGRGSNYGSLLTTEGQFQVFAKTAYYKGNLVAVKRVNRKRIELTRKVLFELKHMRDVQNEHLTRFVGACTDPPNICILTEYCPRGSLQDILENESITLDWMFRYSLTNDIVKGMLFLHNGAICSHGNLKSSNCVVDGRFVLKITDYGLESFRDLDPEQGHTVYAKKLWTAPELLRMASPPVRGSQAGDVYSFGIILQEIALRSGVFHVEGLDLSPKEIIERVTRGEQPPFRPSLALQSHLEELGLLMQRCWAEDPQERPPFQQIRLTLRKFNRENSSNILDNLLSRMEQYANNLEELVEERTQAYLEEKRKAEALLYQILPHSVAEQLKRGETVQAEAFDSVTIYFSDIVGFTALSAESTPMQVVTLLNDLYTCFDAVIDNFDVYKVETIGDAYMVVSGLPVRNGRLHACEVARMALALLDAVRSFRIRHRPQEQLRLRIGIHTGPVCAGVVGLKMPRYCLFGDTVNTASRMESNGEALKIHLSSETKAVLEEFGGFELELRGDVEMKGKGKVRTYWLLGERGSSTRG

T2: natriuretic peptide receptor -B (human)
T2 chain: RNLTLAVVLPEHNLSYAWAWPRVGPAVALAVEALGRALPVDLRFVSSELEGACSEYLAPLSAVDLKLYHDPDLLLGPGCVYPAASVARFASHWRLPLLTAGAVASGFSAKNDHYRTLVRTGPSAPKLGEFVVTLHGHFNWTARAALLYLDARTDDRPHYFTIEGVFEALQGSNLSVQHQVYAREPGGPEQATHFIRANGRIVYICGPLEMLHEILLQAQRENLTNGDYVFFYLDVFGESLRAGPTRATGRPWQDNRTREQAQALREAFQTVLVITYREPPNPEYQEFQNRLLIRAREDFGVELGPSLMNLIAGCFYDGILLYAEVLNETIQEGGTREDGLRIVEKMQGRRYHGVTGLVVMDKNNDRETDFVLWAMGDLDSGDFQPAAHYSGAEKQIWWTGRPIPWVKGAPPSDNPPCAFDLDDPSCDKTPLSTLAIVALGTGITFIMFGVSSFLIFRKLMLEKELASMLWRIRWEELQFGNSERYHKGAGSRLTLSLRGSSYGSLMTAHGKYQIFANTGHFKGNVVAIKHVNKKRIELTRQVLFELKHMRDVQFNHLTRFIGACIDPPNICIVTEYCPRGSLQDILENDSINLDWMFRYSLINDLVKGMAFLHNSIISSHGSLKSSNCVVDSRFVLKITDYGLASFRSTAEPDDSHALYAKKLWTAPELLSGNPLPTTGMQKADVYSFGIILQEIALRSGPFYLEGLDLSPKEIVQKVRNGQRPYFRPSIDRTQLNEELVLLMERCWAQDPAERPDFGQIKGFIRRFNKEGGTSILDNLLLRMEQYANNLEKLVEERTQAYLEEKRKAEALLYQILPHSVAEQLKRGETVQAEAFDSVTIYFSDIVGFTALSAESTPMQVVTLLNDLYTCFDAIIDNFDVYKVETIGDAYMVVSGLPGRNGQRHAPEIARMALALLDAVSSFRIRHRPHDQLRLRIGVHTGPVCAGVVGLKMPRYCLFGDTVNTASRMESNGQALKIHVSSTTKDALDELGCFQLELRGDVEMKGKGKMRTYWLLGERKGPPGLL


Columns and labels:
[1] = biological target: T1, natriuretic peptide receptor -A; assay: cell-based or functional assay
[2] = biological target: T2, natriuretic peptide receptor -B; assay: cell-based or functional assay

| Binder | cyclic GMP production in NPR-A transfected 293-T cells, EC50 [1] [µM] | cyclic GMP production in GTM-3 cells, EC50 [2] [µM] | cyclic GMP production in GTM-3 cells, Emax (maximum activation) [2] [%] |
| --- | --- | --- | --- |
| MCHFGGRMDRISCYR [mini-ANP] | 1.54 | > 45 | 0 |
| SLRRSSCFGGRMDRIGAQSGLGCNSFRY (ligand, disulfide 7-23) [atrial natriuretic peptide] |  | 1.63 | 15 |
| GLSKGCFGLKLDRIGSMSGLGC (ligand, disulfide 6-22) [C-type natriuretic peptide] | 1.6 | 0.0388 | 100 |
